In the assay the target is 6xHis-CTHS-GFP fusion protein (yeast (SUMO/Smt3 part)). In words: mixing of purified proteins in solution, complex shown by Ulp1 cleavage (FIG. 7A). The method, then: FIG. 7A depicts the experimental results obtained when combining NTHS and CTHS-GFP in solution, resulting in assembly and formation of a cleavable complex. 6xHis-CTHS-GFP fusion protein purified from E. coli was incubated with SUMO hydrolase Ulp1 and 6xHis-NTHS (lanes […]), with 6xHis-NTHS (lanes 1-3) or Ulp1 (lanes 7-9). Release of free GFP can be observed only when all the components are present in the reaction mix. […] Furthermore, purification tags such as, but not limited to 6xHis, GST, MBP, a sequence facilitating covalent coupling to solid support such as Cys residue, may be attached to either the amino- and/or carboxy-termini of NTHS.

B1: 6xHis tagged NTHS (other)
chain: MGHHHHHHGSDSEVNQEAKPEVKPEVKPETHINLKVSDGSSEIFFKIKKTTPLRRLMEAFAK
notes: Purified from E. coli and used in solution in the reconstitution and cleavage experiments; also called 6xHis-NTHS
Take B1: the binding result is “binds”.
